The target in one data set is Δnucleolin (Homo sapiens, UniProt P19338 284-710, del1-283). The data set is described as follows: SPR; SPR: 25 °C, 1:10 mixture of binding buffer (10 mM Tris-HCl pH 7.5, 150 mM KCl) and HBS-EP (10 mM HEPES pH 7.4, 150 mM NaCl, 3 mM EDTA, 0.005% P20), protein immobilized; pull-down: RNA on streptavidin beads blocked in 10 mM Tris-HCl pH 7.5, 100 mM KCl, 0.1 mM EDTA, 1 mM DTT, 0.01% Triton X-100, BSA, tRNA; extract 1 h at 30 °C, elution 400-2600 mM KCl. As to conditions: protein: recombinant, tags: N-terminal His-tag (pET28a), label: biotin. A general note: Surface plasmon resonance follows binding to a sensor surface in real time, without labels.
Chain of Δnucleolin (P19338 284-710, stated change not applied): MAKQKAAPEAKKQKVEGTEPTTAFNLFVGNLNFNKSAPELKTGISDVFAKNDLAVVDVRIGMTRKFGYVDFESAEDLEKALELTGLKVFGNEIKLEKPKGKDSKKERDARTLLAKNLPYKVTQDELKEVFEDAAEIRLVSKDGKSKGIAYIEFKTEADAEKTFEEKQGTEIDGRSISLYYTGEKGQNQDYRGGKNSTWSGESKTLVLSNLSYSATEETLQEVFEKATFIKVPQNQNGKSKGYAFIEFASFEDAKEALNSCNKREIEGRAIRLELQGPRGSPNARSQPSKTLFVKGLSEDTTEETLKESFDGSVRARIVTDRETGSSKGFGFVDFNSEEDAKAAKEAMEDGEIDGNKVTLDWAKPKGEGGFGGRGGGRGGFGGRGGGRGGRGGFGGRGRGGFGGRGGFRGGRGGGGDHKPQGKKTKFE

The target in the next data set is U2AF65 (Homo sapiens, UniProt P26368 1-475). The description is as above. The conditions noted are these: protein: recombinant, tags: N-terminal His-tag (pET28a), label: biotin.
Chain of U2AF65 (P26368 whole entry, one chain of several): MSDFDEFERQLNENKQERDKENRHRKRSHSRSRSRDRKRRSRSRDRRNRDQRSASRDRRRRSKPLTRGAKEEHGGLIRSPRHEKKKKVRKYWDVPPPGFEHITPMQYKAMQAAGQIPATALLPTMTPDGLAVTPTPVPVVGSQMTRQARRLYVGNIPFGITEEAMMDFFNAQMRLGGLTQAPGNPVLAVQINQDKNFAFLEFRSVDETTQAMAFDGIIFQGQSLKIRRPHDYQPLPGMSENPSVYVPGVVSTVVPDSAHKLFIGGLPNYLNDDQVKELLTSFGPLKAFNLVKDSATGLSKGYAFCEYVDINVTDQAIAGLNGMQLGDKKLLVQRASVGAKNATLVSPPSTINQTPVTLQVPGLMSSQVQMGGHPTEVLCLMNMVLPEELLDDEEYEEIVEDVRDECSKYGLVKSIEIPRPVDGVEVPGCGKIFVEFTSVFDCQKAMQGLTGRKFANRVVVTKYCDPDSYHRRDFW
For a further data set, the target named is SRSF1 (Homo sapiens, UniProt Q07955 1-248). The data set is described as follows: SPR; 100 nM RNA; SPR: 25 °C, 1:10 mixture of binding buffer (10 mM Tris-HCl pH 7.5, 150 mM KCl) and HBS-EP (10 mM HEPES pH 7.4, 150 mM NaCl, 3 mM EDTA, 0.005% P20), protein immobilized; pull-down: RNA on streptavidin beads blocked in 10 mM Tris-HCl pH 7.5, 100 mM KCl, 0.1 mM EDTA, 1 mM DTT, 0.01% Triton X-100, BSA, tRNA; extract 1 h at 30 °C, elution 400-2600 mM KCl. The conditions noted are these: protein: recombinant; tags: N-terminal His-tag (pET28a); label: biotin; parallel G4, several variants possible.
Chain of SRSF1 (Q07955 whole entry): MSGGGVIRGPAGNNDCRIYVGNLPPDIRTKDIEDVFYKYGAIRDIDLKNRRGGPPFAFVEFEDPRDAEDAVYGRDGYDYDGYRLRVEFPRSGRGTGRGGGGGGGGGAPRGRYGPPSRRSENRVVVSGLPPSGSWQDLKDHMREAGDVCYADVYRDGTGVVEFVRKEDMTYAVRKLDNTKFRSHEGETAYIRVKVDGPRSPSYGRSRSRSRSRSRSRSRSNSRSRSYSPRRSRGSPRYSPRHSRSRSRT

In a further data set the target is T1, EFHD2 (Homo sapiens, UniProt Q96C19 1-240).
T1 sequence: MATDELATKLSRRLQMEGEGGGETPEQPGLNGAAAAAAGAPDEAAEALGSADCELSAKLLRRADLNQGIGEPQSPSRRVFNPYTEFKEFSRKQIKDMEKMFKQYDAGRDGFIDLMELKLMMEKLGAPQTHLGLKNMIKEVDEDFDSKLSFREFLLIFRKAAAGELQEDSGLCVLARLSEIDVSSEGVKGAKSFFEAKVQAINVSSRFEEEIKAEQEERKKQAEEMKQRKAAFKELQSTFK
Described as above. As to conditions: protein: recombinant; tags: N-terminal His-tag (pET28a); label: biotin; parallel G4, several variants possible.

Where [1] appears, read: parallel G4, several variants possible.

One may read the Kd as a measure of binding affinity in units of concentration. Take AACGAGGGAGGGAGGGAGAGGGAGAGA (structured_RNA, 3' biotin) [MMP16 GQ]: the Kd was 2 nM with Δnucleolin (parallel G4 (CD, UV melting)) and 5 nM in the data set with U2AF65 (parallel G4 (CD, UV melting)).

For AGCCGUAGACUGAGCGAAGACCGAGCUUGU (ssRNA, 3' biotin) [ARPC2 mut], in the data set with Δnucleolin (no G4), the Kd was 83 nM.

As for AACGAGAGAGAGAGAGAGAGAGAGAGA (ssRNA, 3' biotin) [MMP16 mut], the Kd with Δnucleolin (no G4) was 0.6 nM.

As for AGCCGGGGGCUGGGCGGGGACCGGGCUUGU (structured_RNA, 3' biotin) [ARPC2 GQ], the Kd with Δnucleolin (setting [1]) turned out to be 0.6 nM; with U2AF65 (setting [1]), 1 nM. Further, the binding result with SRSF1 and with EFHD2 was “binds” throughout.

The values above are taken from article PMC4041461, “Identification and characterization of RNA guanine-quadruplex binding proteins”.
